Experimental data taken from publication PMC12830165 (The Journal of Biological Chemistry, 2025).

B1: 40 bp fluorescein dsDNA (dsDNA)
DNA 1: TTTTGAAAAGCAAGCATAAAAGATCTAAACATAAAATCTG
DNA 2: CAGATTTTATGTTTAGATCTTTTATGCTTGCTTTTCAAAA

Tests used:
[1] = biological target: T1, human ORC1-5 (HsORC1-5, with ORC1ΔN) (Homo sapiens, UniProt O43929+Q13415, O43929:N78S/Q13415:R720Q); assay: NADH-coupled steady-state ATPase assay; assay type: biochemical; settings: ATP 0.13 uM to 0.5 mM, 1 uM ORC, 10 mM Mg acetate, 300 mM K glutamate, pH 7.6, 37 C; ORC1-ORC4 ATPase site
T1 construct: ORC1 N-terminally truncated (ORC1ΔN399, probably starts at residue 400), ORC4 with natural variant N78S; 6xHis-TEV (ORC1) and MBP-TEV (ORC4) tags cleaved; baculovirus/High Five cells; ORC6 not included; with Origin recognition complex subunit 2; Origin recognition complex subunit 3; Origin recognition complex subunit 5
T1 sequence (Q13415 400-861 R720Q): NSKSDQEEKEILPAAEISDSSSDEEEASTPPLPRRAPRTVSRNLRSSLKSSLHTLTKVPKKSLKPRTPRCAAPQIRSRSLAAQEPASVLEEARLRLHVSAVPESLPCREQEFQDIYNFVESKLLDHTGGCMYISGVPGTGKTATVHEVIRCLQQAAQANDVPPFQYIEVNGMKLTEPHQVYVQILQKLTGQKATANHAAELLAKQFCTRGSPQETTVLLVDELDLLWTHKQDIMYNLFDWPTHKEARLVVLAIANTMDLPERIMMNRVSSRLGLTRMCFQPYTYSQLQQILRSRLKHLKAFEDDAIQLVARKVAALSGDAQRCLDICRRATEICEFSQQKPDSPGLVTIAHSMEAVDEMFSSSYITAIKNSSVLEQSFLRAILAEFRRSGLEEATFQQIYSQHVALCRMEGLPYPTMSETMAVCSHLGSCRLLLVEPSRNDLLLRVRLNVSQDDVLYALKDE
T1 sequence (O43929 whole entry N78S, the tested form may be a part): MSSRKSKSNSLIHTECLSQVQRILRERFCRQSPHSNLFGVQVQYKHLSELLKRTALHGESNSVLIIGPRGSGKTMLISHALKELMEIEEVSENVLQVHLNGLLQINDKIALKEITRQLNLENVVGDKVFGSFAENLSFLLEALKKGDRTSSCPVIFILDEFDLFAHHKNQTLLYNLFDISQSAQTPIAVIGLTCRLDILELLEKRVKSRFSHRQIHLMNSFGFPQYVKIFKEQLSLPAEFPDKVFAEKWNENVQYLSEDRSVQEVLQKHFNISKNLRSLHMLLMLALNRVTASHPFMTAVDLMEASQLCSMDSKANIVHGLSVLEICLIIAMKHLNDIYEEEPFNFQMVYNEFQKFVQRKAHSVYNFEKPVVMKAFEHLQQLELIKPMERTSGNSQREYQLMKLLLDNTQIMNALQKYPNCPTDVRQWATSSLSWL
T1 sequence (Q13416 whole entry partner, the tested form may be a part): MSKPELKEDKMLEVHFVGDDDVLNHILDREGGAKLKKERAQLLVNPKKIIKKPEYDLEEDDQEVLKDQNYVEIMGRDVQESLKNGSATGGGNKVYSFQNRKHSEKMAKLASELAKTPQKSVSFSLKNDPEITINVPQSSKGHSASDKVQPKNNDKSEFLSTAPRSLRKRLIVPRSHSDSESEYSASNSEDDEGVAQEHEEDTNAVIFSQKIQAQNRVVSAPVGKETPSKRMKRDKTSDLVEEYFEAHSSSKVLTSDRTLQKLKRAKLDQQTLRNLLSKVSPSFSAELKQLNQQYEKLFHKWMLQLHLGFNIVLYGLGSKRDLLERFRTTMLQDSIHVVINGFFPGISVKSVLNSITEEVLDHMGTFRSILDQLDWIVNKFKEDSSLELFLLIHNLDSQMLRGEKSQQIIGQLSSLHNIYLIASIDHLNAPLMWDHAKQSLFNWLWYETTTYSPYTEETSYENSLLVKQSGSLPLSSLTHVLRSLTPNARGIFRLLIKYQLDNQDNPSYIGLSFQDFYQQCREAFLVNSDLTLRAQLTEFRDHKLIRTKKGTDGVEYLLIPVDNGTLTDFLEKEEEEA
T1 sequence (Q9UBD5 whole entry partner, the tested form may be a part): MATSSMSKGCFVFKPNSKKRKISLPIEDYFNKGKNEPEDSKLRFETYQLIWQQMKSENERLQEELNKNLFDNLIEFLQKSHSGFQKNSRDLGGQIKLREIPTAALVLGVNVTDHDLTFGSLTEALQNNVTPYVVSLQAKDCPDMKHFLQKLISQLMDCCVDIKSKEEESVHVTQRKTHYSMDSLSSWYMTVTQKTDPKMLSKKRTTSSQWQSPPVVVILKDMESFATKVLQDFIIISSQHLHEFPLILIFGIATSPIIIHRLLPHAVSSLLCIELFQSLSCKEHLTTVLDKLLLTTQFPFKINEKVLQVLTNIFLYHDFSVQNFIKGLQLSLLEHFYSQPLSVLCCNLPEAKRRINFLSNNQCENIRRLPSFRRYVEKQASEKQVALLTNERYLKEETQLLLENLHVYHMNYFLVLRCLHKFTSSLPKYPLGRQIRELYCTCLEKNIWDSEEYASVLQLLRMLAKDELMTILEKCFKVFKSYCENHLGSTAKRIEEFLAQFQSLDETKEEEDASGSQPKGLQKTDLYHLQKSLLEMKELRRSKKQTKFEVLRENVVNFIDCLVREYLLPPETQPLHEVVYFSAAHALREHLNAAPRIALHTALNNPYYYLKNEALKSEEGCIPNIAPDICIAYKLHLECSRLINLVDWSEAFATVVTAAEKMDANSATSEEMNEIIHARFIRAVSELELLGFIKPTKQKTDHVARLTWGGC
T1 sequence (O43913 whole entry partner, the tested form may be a part): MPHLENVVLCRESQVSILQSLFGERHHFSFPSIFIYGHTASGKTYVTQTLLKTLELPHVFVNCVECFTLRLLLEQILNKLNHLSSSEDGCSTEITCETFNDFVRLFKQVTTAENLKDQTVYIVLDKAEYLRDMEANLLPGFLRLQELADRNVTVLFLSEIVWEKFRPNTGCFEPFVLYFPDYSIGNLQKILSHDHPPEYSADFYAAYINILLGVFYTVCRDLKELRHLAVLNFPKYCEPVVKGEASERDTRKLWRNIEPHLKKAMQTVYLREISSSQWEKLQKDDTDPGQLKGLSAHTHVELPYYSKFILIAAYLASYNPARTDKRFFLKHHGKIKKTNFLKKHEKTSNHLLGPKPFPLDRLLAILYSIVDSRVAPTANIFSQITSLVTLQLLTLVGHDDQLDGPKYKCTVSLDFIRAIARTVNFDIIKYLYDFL

ORC1-5 (WT, ORC1ΔN) = ORC1-5 (WT, ORC1ΔN) (human, UniProt Q13415;Q13416;Q9UBD5;O43929;O43913 400-861;1-577;1-711;1-436;1-435, N78S); assay: fluorescence anisotropy; 1 mM ATP, 10 mM Mg acetate; 25 mM HEPES-KOH pH 7.6, 300 mM K glutamate, 10% glycerol, 1 mM DTT, 10 mM Mg acetate, 0.01% NP-40, 0 or 1 mM ATP, 1 nM DNA, 30 min at 22 °C; Hill fit (Kd,app); settings: protein: recombinant; tags: 6xHis-TEV (ORC1) and MBP-TEV (ORC4), cleaved by TEV; copies: 1;1;1;1;1; label: 5' fluorescein-T on strand 1; blunt (40 bp; possible 1 nt 5' FluorT overhang)
ORC1-5 ORC4 Y174C = ORC1-5 ORC4 Y174C (human, UniProt Q13415;Q13416;Q9UBD5;O43929;O43913 400-861;1-577;1-711;1-436;1-435, Y174C;ORC4:N78S); assay: as above; settings: protein: recombinant; tags: 6xHis-TEV (ORC1) and MBP-TEV (ORC4), cleaved by TEV; copies: 1;1;1;1;1; label: 5' fluorescein-T on strand 1; blunt (40 bp; possible 1 nt 5' FluorT overhang)
ORC1-5 ORC1 R666W = ORC1-5 ORC1 R666W (human, UniProt Q13415;Q13416;Q9UBD5;O43929;O43913 400-861;1-577;1-711;1-436;1-435, R666W;N78S); assay: as above; settings: protein: recombinant; tags: 6xHis-TEV (ORC1) and MBP-TEV (ORC4), cleaved by TEV; copies: 1;1;1;1;1; label: 5' fluorescein-T on strand 1; blunt (40 bp; possible 1 nt 5' FluorT overhang)
ORC1-5 ORC1 R720Q = ORC1-5 ORC1 R720Q (human, UniProt Q13415;Q13416;Q9UBD5;O43929;O43913 400-861;1-577;1-711;1-436;1-435, R720Q;N78S); assay: as above; settings: protein: recombinant; tags: 6xHis-TEV (ORC1) and MBP-TEV (ORC4), cleaved by TEV; copies: 1;1;1;1;1; label: 5' fluorescein-T on strand 1; blunt (40 bp; possible 1 nt 5' FluorT overhang)

| Molecule | NADH-coupled steady-state ATPase assay [1] | Kd (ORC1-5 (WT, ORC1ΔN)) [nM] | binding result (ORC1-5 ORC4 Y174C) | Kd (ORC1-5 ORC1 R666W) [nM] | binding result (ORC1-5 ORC1 R720Q) |
| --- | --- | --- | --- | --- | --- |
| Nc1ncnc2c1ncn2[C@@H]1O[C@H](COP(=O)(O)OP(=O)(O)OP(=O)(O)O)[C@@H](O)[C@H]1O [ATP] | with the largest ATP hydrolysis defect observed with ORC1R720Q | – | – | – | – |
| B1 | – | 37.6 | no binding | 49.9 | no binding |
